The values that follow come from article PMC12714728 (npj Viruses, 2025).

Starred links: 1 amine or outer side, 2 acyl side, 3 side chain; linkers in the order of their positions; H or OH if unused. Positions of bridges follow the written chain, without caps; N, C: chain ends. No end group written: not given here. Suc = O=C(CCC(=O)[*:2])[*:1]

Assay [1] has as its target T1, hemagglutinin (HA) ectodomain of A/Vietnam/1203/2004 (H5N1) (influenza A virus A/Vietnam/1203/2004 …). The assay is described as follows: AlphaScreen or HTRF. Conditions: both partners purified. For orientation: Alpha assays give light when donor and acceptor beads are brought close together.
Assay [2] addresses T1, hemagglutinin (HA) ectodomain of …. The assay is described as follows: cell-based or functional assay.

B1: linear peptide LP1 (peptide)
peptide: Suc-VSLYRDPLGVAGGMGVY-NH2
notes: source: synthetic peptide (manual solid phase Fmoc chemistry, RP-HPLC)
On to B1, for which, in assay [1], it took 47.9 µM to reach half-maximal inhibition (IC50).

B2: cyclic peptide CP11 (peptide)
peptide: CYRDPLGVAGGMC
modifications: disulfide 1-13
notes: source: synthetic peptide (manual solid phase Fmoc chemistry, iodine oxidation, RP-HPLC)
For B2, half-maximal inhibition in assay [1] (IC50) was put at 7.78 µM.

B3: cyclic peptide CP14 (peptide)
peptide: LYEDPLGVAGGMG
modifications: head-to-tail lactam cyclized (no template)
notes: as for B1
B3 came in with an IC50 in assay [1] of 10 µM.
Still for that read-out and setting: to CYEDPLGVAGGMC (not fully specified; cysteine pairing not given here) [cyclic peptide CP12] belongs 28.8 µM; to CYRDPLGVAGEMC (not fully specified; cysteine pairing not given here) [cyclic peptide CP13], 39.8 µM.

B4: cyclic peptide CP8 (peptide)
peptide: CLYRDPLGVAGGMGC
modifications: not fully specified (bridges); cysteine pairing not given here
notes: as for B2
Regarding B4, the “virus neutralization assay (VNA) EC50, H5/Viet virus” value in assay [2] worked out at 34.6 µM. The molecule also registered an IC50 in assay [1] of 1.55 µM.

One may read the IC50 as the concentration that inhibits the measured activity by half. Low values mean greater potency in that assay, high ones weaker potency in that assay.
